{"source": "a protein production outcome set (Wang et al. 2014)"}
{"experiment": "label from the status in PepcDB records"}
{"sequence": "MFKSVQQRTIQNGQVIPFYHSTNELAHIQNILQSQTPLVSLKEINKFRQLIARASVGEYFLIQSGDCAENFYECDKDTTHAKLDFIRHLATFFHQKTGCSVIQVGRIARQYAKPRSNQYEICQNKRIYSYFGGMINQSQETQRRPNPWRILLSYNCSASIYRKINQWNRGINPEQKIYTSQEAFLFNYEQSLTRWDERTGLYYNLSTHFPWLGKRTVSSLQHINHLKKIANPIAVKIGPDTPIKNLVKVINELDPSYIPGRITLIPELGAQNVYHILPQLIDAVKRTDRTVLWSCDPMHGNTETLSSGIKIRKLSNIVEEIKNSFFIHRKMGSQLNAIHLEATHQNVTECMDYKSSHCESISDLKKNYKNLLDPRLNYAQTLHVIQCVAKYYANS", "protein production": "failed"}
{"sequence": "MFLAGAFIAVGSLYAQSSDAEWQAGVAKLKETIQTNPAQANEEAEQLIKGKNKKNVELLVAIGEVYLKAGKLPEAQEYAALAKKVNGKSALASVLEGDIAFEQKNAGLASQKYEEAIYFDPSCTEAYLRYADIYKSANAALAIEKLEQLKAQEPSNTAVDKKLAEIYYLKNDFSKAAEAYSRFAMGPTATEEDLVKYAFALFLNHDFEKSLEVANMGLKKNARHAAFNRLAMYNYTDLKRFDEAIKAADAFFTESDKADYSYLDYMYYGHLLEALKKYDEAVGQYEKAIQLDPTKTDLYKNISSAYEQKNDYKKAISAYQKYYTSLDKEHQTPDLQFQFGRLYYGAGTQTDSLTINAEERKQALMAADSVFHSIAEAAPDSYLGNFWRARANSALDPETTLGLAKPFYEEVATLLESKNDPHYNSALIECYSYLGYYYLLAIENPALKAEAMANKEKSKEYWSKILAIDSTNATAKRALDGIK", "protein production": "failed"}
{"sequence": "MFLFLTCKIGNRMVKLRTFINISEDLFVIRNLIGAILQGIGLAYLVPVLLAWFYPEEIPLVIYFAIPGFSCIILGWVLSKHMEKIEDVNLRQAMMASAFIWLFASLVSVIPFMGIAKMRFVDSYFETMSAWTGTGLTMMSNLESYPKILLFWRAWMQWLGGIGIVLVALTVLIRPGVAAARLYKAEARSERILPNFVNTAKIIVQIYAVLTLLGIYLYYSNGMSLFDATIHSMTGLGTGGMSSHDLSIGYFNSLAIETVTVFLMIMGATNFTVHYRMFKNRSLKEFFRDIQVRYMLYFITLIVALMTYSLVFFGHLTPIRALRESIFHAVSAITCTGFGISNLAEYPEIDKILLAILMVIGGSAGSTSGGIKLIRIVLMYQSLKWTIEQAILPKGAVIRKRVNGYEFTEEEIQEVLGFTMTYIAFLLLGTLYIMLRLGVRFADALFEVASAIGNVGLSVGITSPLLPLDIKILLTILMWVGRLEIFSTIVFIVGLAMIFSRRSKE", "protein production": "failed"}
{"sequence": "MFLFSLTLGVYCSSWTFYGATGAAVREGVIFLPIYLGPLLFVWFGYDIWRRLGRVRQHHAISSIADFVAARYGKSGVLASLVTILAVIAIIPYLALQLRAIALSTSVIMEQSSHIHTTTNSVLLLTSVLAILAMIFGTRQIANTEQHGGLMLAVAFESFVKLFALLCVALFFIFESPANLSQMTSDVNQTFQEVQLFGVPETFWIQTLLAGLAIICLPRQFHVAVVELRDEKHIRGARKWFAVYLILTILAIIPIASWALHAAPKFLTVPDVAVLSLPLSYNQEWLALLAFLGGFSASTGMLLVSSVALSIMLSNDLIMPALWRFKLLSRHDKHLPKVLKFSRRISIVAVMLLGFLFFHFFNDINQLSVFGLLAFSAVAQFAPALIGGLYWRGGSRQGVYAGLIIGFLMWSYTLLFPTILRSLPEAYQETAQSILLFGPFGINALRPESLFGFESFAPLTHGVIWSLGLNIVLYIWISKIYRPSVAEQIQAESFFYYETKPLPSPHTSTDLTYLPHDAARLKVGDLFALAKRITGEQPTTQAFENFCEQNHLTLNPNSIANGMWWRFTEQYLAGIIGAASARTLLTTAMINNGLALGQVANILDQASQWQRFNQNLLMTMIDHMTQGVSVVDKNMCLVAWNNQYLKLFGYPKDLVYVGCPIADLIRYNAERGECGPGSVEEHVRKRLHWMKVGSAHEFERIRKDGRVIQMRGNPIAGGGFVTTFADITAFRANEAVLEARVKDRTQQLADALTEQQLAREQADMANMSKSRFIAAASHDLLQPMHAARLFSTVLEQSISTEEDRQTLQQLDRALYGAESMLSALLDIARLEGGTIQPKRQPYPLHDLLSDLELQFKSIAAQRNISLKVHDVSFWIDTDPQWIRRIIQNFVSNALRYTAKGRVVVGVLRSAQQSGHIRIGVWDTGPGIAEEQRIKLFQEFERCGHLSPWGEQGLGLGLAIVQRMTGLLNYPVHVYSELGKGSCFMIEVPIVEPPKVATPAVQAVPLKTKAYRILCLDNDETILEGMSSLLGRWGYQVFKATEPEQALEIIQKENIQVWLIDQHLNHNQLGVDFITQNRQEDVPVALITADSHPELPQQLKELNIVLLKKPLKPASLRAWLSGLKIASTTD", "protein production": "failed"}
{"sequence": "MFLLEPKQSSNPMQPQETAARYDTIAQWWQTQHQDSQYGLRQLERAIQFVDPTHQPKLALEVGCGSSGRFIECLSNRGFQVEGLDISTAMIDLAQQLHPEVTFYRADICEWIPSKSYSLIVAWDSTFHLPLDQQAPVHRKLCAALEDQGILMFTCGGGDQAGEIAGVFQGQDFEYSTLGIDAFLKLLSDCHCTCLHLEYDQYPERHVYVIAKKVGAAIH", "protein production": "failed"}
{"sequence": "MFMAKRYENMDNVSTKKSIRSFLRWRKERKQNKKDFSFLVEQSPVKQSAFLQSNVEKTTITWIGHSTFLIQTNGLNILTDPVWANKLKLVPRLTEPGLSIEALPKIDIVLISHGHYDHLDFSTLRQLNDDVLYLVPIGLKKLFTRKKFKHVEEYKWWESTIINEVSFHFVPSQHWTRRFLFDMNTSHWGGWIIDNETTMETIYFCGDSGYFQGFKEIGERFLIDIALMPIGAYEPEWFMKVSHVSPEEAVQAYLDLNATHFIPMHYGAFALADETPREAITRLRNNWNLRMLPWEQLHVLFLGQTFIYSNATNNKQIKEKIETLHV", "protein production": "failed"}
{"sequence": "MFMEVSLTSLPAHVMNALDAIWEGSIADSLESETLEFKEDPSCAGRGKQHGNPQAALIEKLIDEAVCLANGDAGTGHIVVGIKDKIGGPEAFTGTTFDTEKIAKKIFDGTRPNLRPEVHEVRYQNNRLIVIYIPEALSLYSRSKGQTSKRVGSHCEPLSEEQRRAIAATRAHADYSNGISEFNVDDIAADTIQEVRRLLKTKRAQSGIDTSLPTTTNGLLRELGLIDNYGALKRAGAILLLPAPEGQLSIRHFWRSFPGIDPEVTDYNQPLLIALSSLKRRITENANKEIKRIQFSDGQEIAVSAFPQTAVDEVVTNAIIHRDWRLSRPVVIDQSPQTLKVWSPGSLPVGVTPNRLLTTQSIPRNSRLMSAMRMLGLAEESSRGFDRIWAALLGSGRDIPDVHTEDTFVEVILHSGNPDESFIKALHELSLSFNPDMLHSVNTLIVLWHLWTSPVISLKQARVKTQTSSKEATELMFALESNGLLTQIHNTDEWFLSEKARKTTNYYQSETIPQSSVQTWVEEKLSSGSPISAAEIAESIGMPRPEITEILRNLRRAGKAHIDPSGPQRGSGTRWIKGT", "protein production": "failed"}
{"sequence": "MFNAGNRIINTWLYPIQDGFVLIDTGYENGFKHFKKRISKFNIKIKDIRYIFLTHAHDDHVGFLNQILDESPNTKIVMHDKALEILYKGQNSFIGGCTSRTAFLFCQIMKLFGKGEHSFSPLKQEFEKRCILVSDKNRKEIEKELNGKIIDTPGHTDDSISLLIDDGVLFCGDSAMNGFPSTHKITIFAESKLEFIQSWKTIINTKPKMIYPGHGKPFEYSKLEQNLIYVNKINLYPLHNSKDIHRFL", "protein production": "failed"}
{"sequence": "MFNESDAPQPPKVLSTPLEIAANLRQLQESHDPLIITFHDRSHRFQSYVVHVDRESNTLALDEMIPRDGEKFIENGEHFRVEGFHDGVRIAWECDHALKISEVDGHRCYSGPLPQEVTYHQRRNAFRAALKLSQLVDIILDGAHLKGNGAMRGKLLDISATGCKLRFEGNVEDRLQLGQVYERFKAGNPLGLVDTMVELRHLHYEERINTTFAGVRFHNLSGQAQRKIESFVYQLQREARRFDKDDY", "protein production": "not failed"}
{"sequence": "MFNFFKNKQTEPAAPPPPKDPTPRIEFFNGISEELSNVSLQRNPKTGVKSVSMTFAQLNALDRFQSFTAGSNGIVRLIDEEGDIAVTPSSCRIVFGGEEGDELRGVICRFEIENDDHWERFMRFMHRYADEHGFAYGESAETSNEPSSLASETDSEA", "protein production": "failed"}
{"sequence": "MFNIKENQTTVKKEILAGITTFFTMVYIVVVNPSILSGTGVPFDQVFTATIIAAVVGTLWMALAANFPIAIAPGMGLNVYFAVSVVGSSNGEISYQTAFSTVFAAGILFIILSLTPLRKQLIEAIPANLKYGITAGIGLFIAFVGLRGAGIITANEANLVGLGNLHSPGVILALIGLAFSVVLMVMNVSGALFFGMILTGLIAFFTGQLEFTKGIMSMPHLPEKLIVTNPFAAFGDVIHYGLYSVVFSFLLVTIFDTTGTMIGVAEQAGLMKNNKLPNARKALLADSTATTVGAMFGTSPTTAYIESSAGVAAGGRTGLTSLTVAVLFGAALFFSPLVSAVSGIAAITSPALIIVGSMMIGAVTNIRWKELDEAFPAFLVILTMPLTSSIATGISLGFIAYPIVKAAKGKWREIHPLVFVFAVLFFIHLFFLEGH", "protein production": "failed"}
{"sequence": "MFPGVFEHLLYQYTSAILSVGFLIFNGLFAVIYNPKKVVGIKGDPDYTFTDITVLIPVYNEVEDIFRKVIKSVSSMGLKFVVVGDGVDQPYRAITEQNGGIFIRLEERRGKRFALSEGMRYIDTRLVLLLDSDTFIDKRSLERMLSYMAEDVGGVSPSIRVWNNGKISYYYANFYEIMSEIVNRATSYFGRTIILSGQCVLYKTSAIRNYVMSNDFTSSKIFNISLKISDDRDLTEYIIERGYKAIKAIDAIAYTKPPENLSQFVKQVVRWTRANYLFFLRSLRDGSLSLRGNLYVFDIIYMNFLPILVIFSLIPLQYPRFDIFNTLSASITSLERLDIFQLILGIPIRAHLPPFDFVLVFILPRVLSIIGGVTFLLVMIKIMEKERGKTLMYGVIALIVQSLASFYSIASMWKQSWSSREKNRKSKK", "protein production": "failed"}
{"sequence": "MFPRALAIGTPAQHKATEAPVTSTSASGLARFNTLEETAALAELHEACAATAWARHLLAARPFATAEDLYAASDAAMAELSAEDLAEAMAGHPPIGRPKPGDATSSREQAGMAGAAEELKAEMLELNLAYQDKFGHVFLICATGRTGEQMRDAALERIGNSPEQEREIVRTELGKINRIRLTRLVEQDARPLEHHHHHH", "protein production": "not failed"}
{"sequence": "MFQENRTNELVILKEIAETLNTSNDTYHVLQAVLEKLLSVTGLTTGWIFLADEDGRYTKLIDYQLPEALTYENKRPMCEGECWCLRGFVDGKLERAVNIIECKRINNAIEYNWGDTEGILHHATVPLKAGGEKFGLLNVASPGKTHFSEEELVLLQSVAFQIGTALKRAKLYENEKRRAH", "protein production": "failed"}
{"sequence": "MFQPLLDAFIESASIEKMVSKSPPPPLKIAVANWWGDEEIKEFKKSVLYFILSQRYAITLHQNPNESSDLVFSNPLGAARKILSYQNTKRVFYTGENESPNFNLFDYAIGFDELDFNDRYLRMPLYYAHLHYEAELVNDTTAPYKLKDNSLYALKKPSHHFKENHPNLCAVVNDESDLLKRGFASFVASNANAPMRNAFYDALNSIEPVTGGGSVRNTLGYKVGNKSEFLSQYKFNLCFENSQGYGYVTEKILDAYFSHTIPIYWGSPSVAKDFNPKSFVNVHDFNNFDEAIDYIKYLHTHPNAYLDMLYENPLNTLDGKAYFYQDLSFKKILDFFKTILENDTIYHNNPFIFYRDLHEPLISIDDLRVNYDDLRVNYDDLRVNYDDLRVNYDDLRVNYDDLRVNYDDLRVNYDDLRVNYDDLRVNYDDLRVNYDRLLQNASPLLELSQNTTFKIYRKAYQKSLPLLRTIRRWVKK", "protein production": "failed"}
{"sequence": "MFQTGGLIVFYGLLAQTMAQFGGLPVPLDQTLPLNVNPALPLSPTGLAGSLTNALSNGLLSGGLLGILENLPLLDILKPGGGTSGGLLGGLLGKVTSVIPGLNNIIDIKVTDPQLLELGLVQSPDGHRLYVTIPLGIKLQVNTPLVGASLLRLAVKLDITAEILAVRDKQERIHLVLGDCTHSPGSLQISLLDGLGPLPIQGLLDSLTGILNKVLPELVQGNVCPLVNEVLRGLDITLVHDIVNMLIHGLQFVIKV", "protein production": "failed"}
{"sequence": "MFQYRFKRSFSSDPNLSDTIGDRLFDLMEATFPGLNDLAECGRKLGAPWEKASTPFIRFHDDVAITHVGVLEIPMVILGQRVTVGGIHGVATREEFRRRGYYREVMEEALEYCDQIYETLVLTTPEPEYYLPFGFRVVEEYIFH", "protein production": "failed"}
